From article PMC9733933 come the findings set out here.

The test deals with SARS-CoV-2 nsp7-11 polyprotein (SARS-CoV-2). Put plainly: SEC-MALS. In general terms: SEC sorts molecules by how far they enter the pores of the column.

For orientation: stoichiometry N means the number of molecules, sites or subunits per partner or assembly. The substance “SARS-CoV-2 nsp7-11 polyprotein (domain or fragment)” registered a stoichiometry N of 2.
